Experiment: soluble on expression in E. coli; label from the status in PepcDB or PDB records

Sequence | soluble on expression in E. coli
MIASSPIDAAALRASVAAALDPSTAVATLARFDTHAPRLLDALSTLYGDHADYVTWLPQWLSALGVVAQARPAALRHLDDSRAPGWFGQQDMLGYSAYVDRFAGTLRGVAERVPYLQELGVRYLHLLPFLRARAGDNDGGFAVSDYGQVEPALGSNDDLVALTARLRAANISLCADFVLNHTADDHAWAQAARAGDTRYLDYYHHFADRNAPDQYDTTLVQVFPQTAPGNFTWVDETRQWMWTTFYPYQWDLNWSNPAVFGEMALAMLELANLGVEAFRLDSTAYLWKRPGTNCMNQPEAHTILVALRAVADIVAPSVVMKAEAIVPMAELPPYFGSGVQRGHECHLAYHSTLMAAGWSALALQRGDILQDVIAHSPPLPPNCAWLSYVRCHDDIGWNVLQHEAAGTAAQPPFSLREVAQFYANAVPGSYARGESFQSSGDGVHGTNGMSAALVGVQAAHEHADAAAAARAVDRLVLLYAVSLAMPGVPLIYMGDELALPNDTAYLDDAQRRHEGRWLHRPAMAWELAAQRHDASTLAGTVYTRLRALIRLRAGLPALAATQSLGSVALGDARLFALTRGDSFLAVHNFSDVPLPVDLTQTGHALWAVLDTDGTGDAPEPHTELLLPAYGVRWLQRR | soluble
MFFTDESGIHHDPSKVRRLGLYNVPVDYPSRKLNVLASIPLFDGVPCFMFTYSNVNSEIFAEFLRLFRNSGPIVLILDNAKFHKNAYVFSVASQLGITLLFLPPYSPDLNPIELVWKDLKRWVNTYYNLEYTLDSMEEEFYYLFLRECSQTVMKFKKRL | soluble
MNLIPQDVLKKYLLPIRDLATSTFVFKKKYTRECQRSTPRNFINQFLLLFLKVPFSLLQELKLSKMLEIDKDKKVLIGCLAGSFLFYHTARQIYSYMSVKPREWVPVGVVKSLHIFPIKSCKSVDVFAFKCTKLGPVMGDLEDRAFMLVEESTGKFITARQKPKLVHVENYMTDGMLEVTVPGQPKLSVDLRKVLQNKRTIRATLFKNLKQDGYDCGDEVAKLLSDYIEEPNYRLIFYKEGLYTERTVIPDDQWWNNPVPKRNDDSGFTDLAPFHIATDASLKVLNEKLDNKITMRYFRPSIYIEGCAAWDEDKWAEIRIGDAHLECFAPCTRCVLTTVDPVKGEMSKEMQPLKKLREFRLVPDGKMRKVHMESPVFGVYAGLVNEGYIHTGQTVYVRYKPTAF | not soluble
MTLKELLVGFGTQVRSIWMIGLHAFAKRETRMYPEEPVYLPPRYRGRIVLTRDPDGEERCVACNLCAVACPVGCISLQKAETKDGRWYPEFFRINFSRCIFCGLCEEACPTTAIQLTPDFELGEYKRQDLVYEKEDLLISGPGKYPEYNFYRMAGMAIDGKDKGEAENEAKPIDVKSLLP | not soluble
MAHHHHHHMFTLCKGYSEDEDEEEVKDIIDNLKEQKKSFEEKINYYKLKGNIERSHITIYTNLGEFQVELYWYHSPKTCLNFYTLCTMGYYDNTIFHRVIPDYIIQGGDPTGTGKGGKSIYGEYFEDEINTELKHTGAGILSMSNNGPNTNGSQFFITLCPLPHLDGKHTIFARVSKNMTCIENIASVQTTATNKPIFDVKILRTSTAVNVD | soluble
MSLLLEILDLSRSTYYYQVKRLAQGDKDIELKHVIREIYDEHKGNYGYRRIHMELRNRGFVVNHKKVQRLMKVMGLAARIRRKRKYSSYKGEVGKKADNLIKRHFEGSKPYEKCYTDVTEFALPEGKLYLSPVFDSYNCEIIDFTLSRSPNLKQAQTMLEKTFPADSYSGTILHSDQGWQYQHQSYHDFLESKGILPSMSRKGNSPDNGMMDSFFGILKSEMFYGLETTYQSLDKLEEAITDYIFYYNNKRIKAKLKGLSPVQYRTKSFQEGHHHHHH | not soluble
MGSDKIHHHHHHMFDPESLKKLAIEIVKKSIEAVFPDRAVKETLPKLNLDRVILVAVGKAAWRMAKAAYEVLGKKIRKGVVVTKYGHSEGPIDDFEIYEAGHPVPDENTIKTTRRVLELVDQLNENDTVLFLLSGGGSSLFELPLEGVSLEEIQKLTSALLKSGASIEEINTVRKHLSQVKGGRFAERVFPAKVVALVLSDVLGDRLDVIASGPAWPDSSTSEDALKVLEKYGIETSESVKRAILQETPKHLSNVEIHLIGNVQKVCDEAKSLAKEKGFNAEIITTSLDCEAREAGRFIASIMKEVKFKDRPLKKPAALIFGGETVVHVKGNGIGGRNQELALSAAIALEGIEGVILCSAGTDGTDGPTDAAGGIVDGSTAKTLKAMGEDPYQYLKNNDSYNALKKSGALLITGPTGTNVNDLIIGLIV | soluble
MGSDKIHHHHHHMKKITKIEGNLANSFIKPKTRVVAYCRVSTDSNEQLVSLQAQKAHYETYIKANPEWEYAGLYYDEGISGTKKENRSDLLRMLSDCETGRIDLIITKSISRFARNTTDCLEMVRKLIDLGVHIYFEKENINTGSMESELMLSILSGLAESESISISENTKWAIQRRFQNGTFKISYPPYGYQNIDGQMIVNPKQAEVVKYIFAEVLSGKGTQKVANDLNQKGIPSKRRGRWTATTIRGILTNEKYTGDVILQKTYTDSHFNRHTNYGEKNMYLVENHHEAIISHEDFQAVDAILNQRAKEKSIEKRNSKYLNRYSFSSKIICSECGSTFKRRIHSSGRKYIAWCCSKHISNITECSMQFIRDDDIKTAFVTMMNKLIFGQKFILRPLLEGLRNQNNAASFHRIEELEIKIENNMEQSQVLTGLMAKGYLEPALYNKEKNSLVQERERLLAEKDQLTRFVNGNLAKVEEVNHLLRFATKSKMLTAYEDELFENYVEKIIVFSREEVGFELKCGITLKERLVN | not soluble
PSTLLKNYQDNNKMLVLALENEKSKVKEAQDIILQLRKECYYLTCQL | soluble
RQPEVRGGDTLNVFLAYVPEDAKAMMTTPFEAYLVNDSNYYLYYTYLSAEGKAWNNRSHGLVEPNTKLLLEEFTKDVLNEMERVAVQLIAFKDGKPAAIKPAVSVELRIDTVKFYKLHTFSASDFFEEPALIYDIVKDDVPAKQVYV | soluble
MAHHHHHHMPPKGFKSNVSPEEAIAARKEKVELLSQQCAAVEKMLSICTDQGLRLNAEIAELERRIAETEVLTEQASRDLDVTVKIVTSYATSNLDQLQQRRLNMEKTAHEAEAENEALRAKIAELTGRREAEIEQWEARVEEQQALMNQKALDFGMQLKETLARRYATV | not soluble
SLPVINGAHVISMKNYTLVSDAYGEKGVKKVYEDEYLICENLKSFNKNLHPNFNFACFCLFDGHNGKNTAMFLKRNLAQELSNSFLEMQNTYDSSLPIPDHFIKISVNNTCKRIDERIAQEYPNSRDGATCVIVLIKDEYAYIINIGDSCAYLCRYLNNSNQAIELVDIHKPWVITEKERIIKHGGTIENGRVNDIIDVTRSFGDLSLKKYGLLCTGTFKKFKINSDDNFIILGTDGFFGSVDINYVINEITNLSKKEERLVNVEKKKTVFDAKSICNIMVEHAIVDKKSQDNVTVVLIKFLHKKGNSSTTTTTTEIRLLTKPERKLSWLLPPLSNN | soluble
MIDSRLLAWAYLSKVVEGPNAHLQKLLKEGHDVERIAFGIKHREEWIGEGLLKNTDSRYSIDTAQTDLETIAKLGGRLITPEDDEWPMEELDHAFGFAASGMSDHVRTYQDDALPPHALWIRGGNLRTLSAQSVTLVGTRAISQYGTEVTREFTQNLVSHQWTIISGGALGVDSVAHSEAVRAQGSTIAIAACGLDRSYPSHNRDLFNQIAKSGKGALVSEYPPGTPPQRHRFLTRNRLVAALSQGTVVVEAAWRSGALNTLSWCAGLGRIAMAVPGPVNTAGSLGCHERIRNGSAQMVTSADDVRSLLGAVGAMDSQTQYELNFAATPVQGLTRNELRVFDALDDRGEGREAASIATEAGLTLQLTIFLLIALNKRGIVKRDGTAWSRNAEMP | not soluble
MGSDKIHHHHHHVSLIQEYKKQQNWRDWERYLESIPYSGEDTVIDLGCSVGDVSQLFSLRVKNVIGIDVNQDFIDICESQKSVNQTFICSDFLSLDSQLIESTNGIWSSFSLSYLRNPLDFLIYLNASMKQGGWIALLDISCFISGNLAKKSQYYEKVLKFELESYKSGIYDFDFGSKMLSMLQNAGFDIVYLDNDVTDPELNFTGAASAEIIHGWAARLNRMNRLKDEIGAEYPDFCNELLANLSSDTHEKRQNVRFIVARKPITSVNKATDSCAGVHSQ | not soluble
SPFMFRPRKQVFQTQGAAVSSMAQTLLPNDLASKAMGSAFTALLDANEDAQKAMKIIKTLSSLSDAWENVKETLNNPEFWKQLLSRCVQLIAGMTIAVMHPDPLTLLCLGTLTAAEITSQTSLCEEIAAKFKTIFITPPPRFPTISLFQQQSPLKQVNDIFSLAKNLDWAVKTVEKVVDWFGTWIVQEEKEQTLDQLLQRFPEHAKRISDLRNGMAAYVECKESFDFFEKLYNQAVKEKRTGIAAVCEKFRQKHDHATARCEPVVIVLRGDAGQGKSLSSQVIAQAVSKTIFGRQSVYSLPPDSDFFDGYENQFAAIMDDLGQNPDGSDFTTFCQMVSTTNFLPNMASLERKGTPFTSQLVVATTNLPEFRPVTIAHYPAVERRITFDYSVSAGPVCSKTEAGYKVLDVERAFRPTGEAPLPCFQNNCLFLEKAGLQFRDNRTKEIISLVDVIERAVARIERKKKVLTTVQTLVAQ | soluble
MGSDKIHHHHHHMTVHDRIVAEPFSLQRRNPAGGTKPLTSWGFANETDVLTDVLLGSPNFLRHLSTSSLSRKHLREAPCNVQIAQAQHKDLVAAYEHFGVNIHWHEPTPELPMQVYSRDSSVMTPYGAIITAMANWWRRGENYAAIRTYEKLGIPIYDMVTAGTFEGGDFNVIEDGVVLIGCGGARTQEEGARQVQAWFEKEGWETRIAFIDEYYVHIDLMVVPIAEKLTAVCLACTEPGIVDWLKGKGHEIIDVPFQDTMALGCNFMSLGKDRVIAPTSSQTLIGQLKARGFEVAAVDMSEISKTGGGIHCMAQALKREAA | not soluble
TKNNQQTTPQTNHFNVADPVNKVPNWRKLGPETQRELRDLLYPLDDTGYFIYKYGAISRYLQSQKELDELVDYRTVLPSTQKHFKYDSFNQSVLESKLRKWLMKAIKQHPYFQHFEFDPVLKAQYNINIPAQKITVNAVWFYKKDNDLTTGKPIRYWDQFEIKLKQ | soluble
MTLPFKNGRGTMKINGVTIQMLPAASGDCIYLEFPDSDFRMLIDGGYAKTYQKYLKKFLLKLAAEGKRLNLIVVTHIDDDHISGIRALLKENGDSRNPKIIEIDEIWFNSLNQCITSRNAEQGMSFAVKIILKSMCSTDIDFECEYKKQNISYTNGKNLAELIQAGGYRWNASVVNNLVSKGQIVQFGDLKITILNPGIETLTKMGKKWLYHLKQINSNNIEITRDPLFDAAFEGFLLNNEKNIEFKQENISYSSEDLDWLDKYAEYKDIEMDSKITNCSSIAILIDYKDIKMLFPGDSPIQLFENELPKILDVIKLPHHGSAKNISLEFIKNTKVKYYLLSTDGKRYIDHPGKAVIANIIKNTGNNTELIKNYEIKFLKGLGKLDAED | not soluble
MLEDLKRQVLEANLALPKHNLVTLTWGNVSAVDRERGVFVIKPSGVDYSIMTADDMVVVSIETGEVVEGAKKPSSDTPTHRLLYQAFPSIGGIVHTHSRHATIWAQAGQSIPATGTTHADYFYGTIPCTRKMTDAEINGEYEWETGNVIVETFEKQGIDAAQMPGVLVHSHGPFAWGKNAEDAVHNAIVLEEVAYMGIFCRQLAPQLPDMQQTLLNKHYLRKHGAKAYYGQ | soluble
MEKKLPRIKALLTPGEVAKRSGVAVSALHFYESKGLITSIRNSGNQRRYKRDVLRYVAIIKIAQRIGIPLATIGEAFGVLPEGHTLSAKEWKQLSSQWREELDRRIHTLVALRDELDGCIGCGCLSRSDCPLRNPGDRLGEEGTGARLLEDEQN | soluble
